Among the data in US20220396813 are activity values, retold here.

Holding throughout (experiment): cell_activity
The test system of data set [1] is T1, Rec18 WP_007635552.1 (Paraglaciecola psychrophila).
T1 sequence: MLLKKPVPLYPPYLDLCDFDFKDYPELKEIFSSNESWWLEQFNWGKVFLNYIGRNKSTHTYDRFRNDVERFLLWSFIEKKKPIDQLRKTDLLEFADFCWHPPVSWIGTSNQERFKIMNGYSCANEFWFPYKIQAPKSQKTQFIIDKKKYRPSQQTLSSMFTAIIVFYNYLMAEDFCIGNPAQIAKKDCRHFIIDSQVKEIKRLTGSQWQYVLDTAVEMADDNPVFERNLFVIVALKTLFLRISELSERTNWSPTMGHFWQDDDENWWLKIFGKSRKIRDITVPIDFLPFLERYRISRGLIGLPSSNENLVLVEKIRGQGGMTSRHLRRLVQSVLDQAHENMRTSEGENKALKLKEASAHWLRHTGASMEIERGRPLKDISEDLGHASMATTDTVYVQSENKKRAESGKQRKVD
Particulars: HEK293T inversion; background 1.255.

Data set [2] relates to T2, Rec21 WP_010365336.1 (Pseudoalteromonas citrea).
T2 sequence: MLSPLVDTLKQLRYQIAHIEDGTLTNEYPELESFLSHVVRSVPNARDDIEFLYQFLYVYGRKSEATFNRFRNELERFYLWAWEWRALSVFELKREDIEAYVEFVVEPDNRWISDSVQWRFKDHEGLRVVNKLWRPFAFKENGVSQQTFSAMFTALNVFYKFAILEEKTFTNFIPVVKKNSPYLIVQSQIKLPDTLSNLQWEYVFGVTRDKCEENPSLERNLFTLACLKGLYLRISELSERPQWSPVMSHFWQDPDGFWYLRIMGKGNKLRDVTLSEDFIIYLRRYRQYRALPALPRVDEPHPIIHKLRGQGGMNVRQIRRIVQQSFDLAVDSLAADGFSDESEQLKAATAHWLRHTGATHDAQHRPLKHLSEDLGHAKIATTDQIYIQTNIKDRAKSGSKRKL
The conditions noted are these: HEK293T inversion; background 4.91.

For data set [3], the system named is T3, Rec24 WP_046407494.1 (Sphingomonas sp.).
T3 sequence: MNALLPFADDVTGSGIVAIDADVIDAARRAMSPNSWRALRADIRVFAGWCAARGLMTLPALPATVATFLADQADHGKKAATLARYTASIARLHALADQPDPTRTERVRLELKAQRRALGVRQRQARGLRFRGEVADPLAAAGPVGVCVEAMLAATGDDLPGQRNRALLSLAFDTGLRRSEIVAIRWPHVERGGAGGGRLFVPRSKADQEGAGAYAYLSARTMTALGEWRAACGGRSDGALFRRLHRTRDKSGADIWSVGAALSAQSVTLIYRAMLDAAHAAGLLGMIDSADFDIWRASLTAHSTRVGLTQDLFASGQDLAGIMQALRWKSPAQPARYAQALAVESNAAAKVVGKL
Particulars: HEK293T inversion; background 2.34.

The test system of data set [4] is T4, Rec22 WP_016392893.1 (Pseudomonas plecoglossicida).
T4 sequence: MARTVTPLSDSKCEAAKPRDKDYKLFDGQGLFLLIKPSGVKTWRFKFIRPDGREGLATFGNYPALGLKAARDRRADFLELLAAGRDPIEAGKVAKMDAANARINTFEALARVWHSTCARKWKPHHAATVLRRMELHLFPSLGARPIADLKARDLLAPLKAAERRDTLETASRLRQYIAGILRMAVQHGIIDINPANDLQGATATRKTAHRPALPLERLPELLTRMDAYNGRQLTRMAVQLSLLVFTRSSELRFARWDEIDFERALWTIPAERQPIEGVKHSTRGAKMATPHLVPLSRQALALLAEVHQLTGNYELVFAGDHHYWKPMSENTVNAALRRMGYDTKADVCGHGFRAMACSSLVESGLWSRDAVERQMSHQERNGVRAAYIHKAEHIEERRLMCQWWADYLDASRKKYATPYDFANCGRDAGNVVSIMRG
Particulars: HEK293T inversion; background 1.66.

Data set [5] deals with T5, Rec23 WP_047824597.1 (Croceicoccus naphthovorans).
T5 sequence: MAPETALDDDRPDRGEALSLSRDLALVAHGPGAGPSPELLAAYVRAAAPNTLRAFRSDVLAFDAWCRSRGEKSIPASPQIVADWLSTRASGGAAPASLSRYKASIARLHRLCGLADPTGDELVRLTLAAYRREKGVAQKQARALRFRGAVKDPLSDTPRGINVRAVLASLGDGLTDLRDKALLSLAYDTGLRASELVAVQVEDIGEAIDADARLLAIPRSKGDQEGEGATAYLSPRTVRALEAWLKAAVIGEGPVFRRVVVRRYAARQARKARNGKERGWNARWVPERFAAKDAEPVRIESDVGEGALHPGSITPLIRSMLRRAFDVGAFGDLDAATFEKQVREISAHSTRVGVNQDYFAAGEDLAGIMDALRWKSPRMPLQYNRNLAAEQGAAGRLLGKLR
The conditions noted are these: HEK293T inversion; background 0.81.

Take “TTATGTCCAATANNNNNNNNTATTGGACATAG (double strand) [Rec17-18 natural site]”: the activity in data set [1] worked out at 0.202 % GFP+.
Regarding “TAATGTCCAATANNNNNNNNTATCGGACATAA (double strand) [Rec21 natural site]”, the activity in data set [2] stood at 4.75 % GFP+.
For the sequence “GCACTAGCGATANNNNNNNNTATCACTAGTGC (double strand) [Rec24 natural site]”, the activity in data set [3] was 17.1 % GFP+.
With “GACCACTCCAGANNNNNNNNNTCTGGAGTGGTG (double strand) [Rec22 natural site]”, in data set [4], the activity worked out at 1.45 % GFP+.
Consider “GGACATGTGATANNNNNNNNTATCACATGTTG (double strand) [Rec23 natural site]”, for which, in data set [5], the activity was found to be 43.3 % GFP+.
